One molecule from paper PMC6379078 (Cell, 2018) can be followed below.

This assay concerns the target T1, wheat germ cell extract in vitro translated HA-GLI1 (human, UniProt P08151 1-1106).
T1 sequence (looked up): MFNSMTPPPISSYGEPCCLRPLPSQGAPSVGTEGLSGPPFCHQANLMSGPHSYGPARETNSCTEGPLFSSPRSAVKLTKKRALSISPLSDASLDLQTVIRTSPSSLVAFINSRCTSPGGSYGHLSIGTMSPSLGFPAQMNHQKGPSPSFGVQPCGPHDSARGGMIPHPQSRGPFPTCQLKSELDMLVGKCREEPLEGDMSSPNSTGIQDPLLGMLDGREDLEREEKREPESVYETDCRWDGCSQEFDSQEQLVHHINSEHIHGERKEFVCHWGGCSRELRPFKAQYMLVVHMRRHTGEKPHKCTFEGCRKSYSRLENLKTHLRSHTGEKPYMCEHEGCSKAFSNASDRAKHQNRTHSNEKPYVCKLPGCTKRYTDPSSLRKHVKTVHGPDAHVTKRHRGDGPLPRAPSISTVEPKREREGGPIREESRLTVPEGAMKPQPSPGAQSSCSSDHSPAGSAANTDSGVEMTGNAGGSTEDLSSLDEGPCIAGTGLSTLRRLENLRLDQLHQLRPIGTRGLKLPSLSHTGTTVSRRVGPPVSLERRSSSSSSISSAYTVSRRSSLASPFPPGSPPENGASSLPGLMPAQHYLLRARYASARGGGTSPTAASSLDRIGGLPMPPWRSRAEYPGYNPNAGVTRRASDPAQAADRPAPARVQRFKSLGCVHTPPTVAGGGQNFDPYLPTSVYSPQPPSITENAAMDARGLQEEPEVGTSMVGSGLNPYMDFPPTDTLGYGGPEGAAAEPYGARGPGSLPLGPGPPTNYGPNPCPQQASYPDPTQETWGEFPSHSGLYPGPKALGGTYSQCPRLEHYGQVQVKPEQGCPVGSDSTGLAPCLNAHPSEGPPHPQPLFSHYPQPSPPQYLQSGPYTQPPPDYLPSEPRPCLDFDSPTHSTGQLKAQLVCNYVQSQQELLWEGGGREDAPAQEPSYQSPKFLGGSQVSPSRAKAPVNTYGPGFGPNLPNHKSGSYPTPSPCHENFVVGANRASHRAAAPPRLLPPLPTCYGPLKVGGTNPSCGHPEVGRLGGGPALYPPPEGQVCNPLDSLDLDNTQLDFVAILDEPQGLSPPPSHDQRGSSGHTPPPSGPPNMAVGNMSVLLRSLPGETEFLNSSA
The assay can be described thus: co-IP.

Ends that are not written are not given here. * marks the point of attachment. Biotin = O=C1N[C@H]2[C@H](CS[C@H]2CCCCC(=O)*)N1

A word on the Kd: it is a measure of binding affinity in units of concentration. Low readings indicate a tighter complex, high ones a looser complex. In turn, Biotin-LEDPSVLTKDKLKSELVANNVTLPAGEQRKDVYVQLYLQHLTAR (peptide, UniProt P42166 5-48, looked up) [biotin-LEM-like domain peptide (residues 5–48)] displayed a Kd of 8 µM.
